Measurements taken from the supplement of paper PMC12042874.
± gives the uncertainty stated by the source.

Assay: amyloid nucleation score (Sup35N fusion, yeast selection) (log enrichment); library NNK1; higher = more nucleation; inactive = no reads after selection
Outline: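 The nucleation score is the log enrichment of output over input reads, calculated with DiMSum and centred on the mode score of non-aggregating sequences. Sequences with under 100 input reads were excluded. Reads came from Illumina sequencing of plasmid inserts from psi-negative yeast expressing Sup35N fused to peptides of 20 random codons, induced 24 hours with 100 μM copper sulfate and grown 7 days at 30°C without adenine and uracil.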

Substance | amyloid nucleation score
LSDFLRPLVLVFLSTLEVAM | 0.138 ± 0.35
LSFWLCSWSMWCKSQLGNDR | 2.13 ± 0.13
LSGPLNGEDFHRIFQVDFRW | 0.244 ± 0.79
LSHLRSLYKGCSYRMHSWMY | 1.04 ± 0.58
LSHWMPVN | -0.527 ± 0.34
LSIIVHNCGVLVVSMTLTVI | -0.172 ± 1.6
LSLFCVLMY | 2.1 ± 0.27
LSMRWYTSPFAFGIS | -0.114 ± 0.88
LSPGRYFDSPL | 0.589 ± 0.77
LSQMSRCNPACAVVPASEMA | 0.376 ± 1.1
LSQNLAPGIVFFAV | -1.02 ± 1.7
LSQTKSL | -0.012 ± 0.77
LSSAGYQFMFLSSFLGWEVN | -0.492 ± 0.44
LSSRFAWCIWGET | 0.956 ± 0.73
LSSYGYHMRVDHVTNANPSR | 0.159 ± 0.43
LSTDQLVSSLKCR | 0.404 ± 0.41
LSYDEYPGMNASAAIQGLVV | -0.556 ± 1.4
LSYRCVVYSVMIWSDIRALV | 0.655 ± 0.3
LTARSFKCF | inactive
LTCFVISVGTSSLIIDFWI | -0.647 ± 0.39
LTFMFTTRIA | -0.912 ± 1.1
LTFNAMMMMIMLIMSAYIVS | 1.89 ± 0.46

Substance | amyloid nucleation score
LTGFCHFYGSIFTSYMKSL | inactive
LTGSRIMCFSMWR | -1.02 ± 0.43
LTGYTAS | 0.295 ± 0.37
LTIRQWRFITAVGDLFLWMR | 0.331 ± 0.58
LTLICSSGEC | 2.14 ± 0.17
LTLLA | -0.096 ± 1.7
LTLMGRSMNKYVAGSTTRAL | -0.371 ± 0.29
LTVLACPRYSS | 0.525 ± 0.87
LTWHRLSISHTVAYLSTDSI | inactive
LTYCDIVLSMMSLDEKSDYD | inactive
LTYSPWGCWIYMCYGERFWR | 7.883 ± 0.062
LVCSGKWFVKSARLQ | 0.962 ± 0.14
LVFTNTLSTIFNNLHCYMWE | 4.49 ± 0.12
LVFWRLCERHRWLRGFESA | -1.06 ± 1.5
LVGGCPLTRGRGYGRPRNGG | -1.9 ± 2.7
LVIHCDQTHIKVQRDVPRRW | 2.98 ± 0.15
LVILRGLGPDSCYYC | -0.248 ± 0.86
LVIYVVSDDSVGLTNWRIVA | 3.76 ± 0.065
LVLAENCR | -0.672 ± 0.68
LVLGAVV | -0.104 ± 0.87
LVLIRKLVWGSGSDTLWVRR | inactive
LVMCFVMGMLNLDAGLIMRM | 0.425 ± 0.37

Substance | amyloid nucleation score
LVMGMHYSLVV | 0.125 ± 0.46
LVMLRCAMTLCSIMLNYTPR | 0.89 ± 0.39
LVNIHVIQKAFVGTVASSKV | 5.07 ± 0.067
LVNNSSCYHCQRLGQLEVNK | 0.215 ± 0.33
LVRAIIANCAYFCQFRFSLG | 0.944 ± 0.69
LVSQVFNVQRYGGRTVPQSF | 0.364 ± 1.2
LVVLLIRTNCVKRKEFGERA | -2.04 ± 2.4
LVYILMLYWVYGQIGNFSLV | -0.955 ± 0.9
LWAFIIGIVSTTLLGYKPFH | -0.344 ± 1.1
LWFNSDLIE | -0.369 ± 0.35
LWGDYPFRDVPRTMVDQRRN | 0.079 ± 0.98
LWKGATRCHKVLRMLENDND | -0.606 ± 0.9
LWKNVVWTTGPIIASWVSDL | 2.04 ± 0.11
LWLRCLSIAAGIHQ | 2.31 ± 0.12
LWMYYESFF | 0.843 ± 0.6
LWVRSKFRSC | -0.08 ± 1.1
LWVSNSSIRLDRNINQTLAT | 0.019 ± 1.4
LWYCYYSVVFILSGALSHCV | -0.252 ± 1.4
LYCSNLILVWLFCRSDISVR | 5.17 ± 0.056
LYESELLNNHQETSPQSSEG | -0.349 ± 0.56
LYGFANYFRFMRYWTRNVVP | 0.124 ± 1.2
LYIFGAY | -1.26 ± 0.53

Substance | amyloid nucleation score
LYIFLNEDDRFSMKQGVKGG | 0.546 ± 0.83
LYIMGRLDFIFRWVTGGFDT | -0.838 ± 0.77
LYIMLLLLLLTSQYT | -0.347 ± 0.63
LYLLSDNFR | 1.68 ± 0.72
LYNLGHDSVGDLSFFCLRGW | -0.427 ± 0.36
LYNSRTWMIGIGSPAQIV | -0.731 ± 0.61
LYSGFNRSKRSAVNSICAH | 0.368 ± 0.18
LYSLATIDNYMPWCQGSSGS | inactive
LYVFHRRYYWANYDDRYPLP | 0.613 ± 0.48
MCGFF | -0.178 ± 0.57
MCLAMSIFDKTENK | -0.731 ± 0.73
MCLFENMFDHFSGSLQSHGG | 0.318 ± 0.27
MCYVRMTFGTRDCHERVSLS | inactive
MDARKTGTDNWRTS | -0.202 ± 0.32
MDQFDLGSYSCASFQDTPAL | 1.39 ± 0.18
MDRNFSILTF | inactive
MDVIFGLMS | 0.729 ± 0.51
MEKYYGQLLKDY | 0.224 ± 0.29
MFDTRDRMAALTFVKRMWCK | inactive
MFFSSIYVAYYGLLLIYSYM | inactive
